Where no end group is shown, it is not given here.

This assay has as its target recombinant reconstituted β2 adrenergic receptor. Description: ELISA of clones panned from the Gs library, reconstituted β2 adrenergic receptor. In general terms: An ELISA detects its analyte on a solid surface through an enzyme-linked reagent.
As for QRLRLGPDELF (peptide, not shown: small tags and cut ends, not fully specified) [AG4 QRLRLGPDELF], the ELISA is 0.291. Consider QGEHLRQLQLQ (peptide, not shown: small tags and cut ends, not fully specified) [AG2 QGEHLRQLQLQ], for which the ELISA worked out at 0.33. As for NCMKFRSCGLF (peptide, not shown: small tags and cut ends, not fully specified; cysteine pairing not given here) [BAR20 NCMKFRSCGLF], the ELISA was determined as 0.079.

QRMPLRQYELL (peptide, not shown: small tags and cut ends, not fully specified) [AG9 QRMPLRQYELL]: the ELISA turned out to be 0.19. For the molecule ERLHRRLFQLH (peptide, not shown: small tags and cut ends, not fully specified) [BAR8 ERLHRRLFQLH], the ELISA amounted to 0.047. The same measure for RWLHWQYRGRG (peptide, not shown: small tags and cut ends, not fully specified) [AG20 RWLHWQYRGRG]: 0.431; for QRLHLRGYEFL (peptide, not shown: small tags and cut ends, not fully specified) [AG13 QRLHLRGYEFL]: 0.054; for DRMHLWRFGLL (peptide, not shown: small tags and cut ends, not fully specified) [AG11 DRMHLWRFGLL]: 0.192. Consider QRMPLRLFEFL (peptide, not shown: small tags and cut ends, not fully specified) [AG3 QRMPLRLFEFL], for which the ELISA worked out at 0.217. As to QRLRLRKYRLF (peptide, not shown: small tags and cut ends, not fully specified) [BAR31 QRLRLRKYRLF], the ELISA was 0.026.

As to QRMNLGPCGLL (peptide, not shown: small tags and cut ends, not fully specified) [AG18 QRMNLGPCGLL], the ELISA came out at 0.155. For PRPRLLRFKIP (peptide, not shown: small tags and cut ends, also: fused to carrier via linker, not given here) [AG19 PRPRLLRFKIP], the ELISA amounted to 0.361. As for QRIHRRPFKFF (peptide, not shown: small tags and cut ends, not fully specified) [BAR1 QRIHRRPFKFF], the ELISA amounted to 0.218. QRVHLRQDELL (peptide, not shown: small tags and cut ends, not fully specified) [BAR2 QRVHLRQDELL]: the ELISA came out at 0.197. As for PCIQLGQYESF (peptide, not shown: small tags and cut ends, not fully specified) [BAR40 PCIQLGQYESF], the ELISA came out at 0.028. Consider QWMDLRQHELL (peptide, not shown: small tags and cut ends, not fully specified) [BAR3 QWMDLRQHELL], for which the ELISA amounted to 0.185. For QGMQLRRFKLR (peptide, not shown: small tags and cut ends, not fully specified) [AG1 QGMQLRRFKLR], the ELISA was 0.435.

The values are drawn from US20040018558A1 (published 2004).
